Biological target: recombinant His-MYC-bHLH-LZ protein
Experiment: BLI

B1: recombinant GST-MKK3 protein (enzyme)
chain: MESPASSQPASMPQSKGKSKRKKDLRISCMSKPPAPNPTPPRNLDSRTFITIGDRNFEVEADDLVTISELGRGAYGVVEKVRHAQSGTIMAVKRIRATVNSQEQKRLLMDLDINMRTVDCFYTVTFYGALFREGDVWICMELMDTSLDKFYRKVLDKNMTIPEDILGEIAVSIVRALEHLHSKLSVIHRDVKPSNVLINKEGHVKMCDFGISGYLVDSVAKTMDAGCKPYMAPERINPELNQKGYNVKSDVWSLGITMIEMAILRFPYESWGTPFQQLKQVVEEPSPQLPADRFSPEFVDFTAQCLRKNPAERMSYLELMEHPFFTLHKTKKTDIAAFVKEILGEDS
  Kd: 225 nM
